Results: PMC7401805, “Tissue specific requirement of Drosophila Rcd4 for centriole duplication and ciliogenesis” (The Journal of Cell Biology, 2020)

T1: MBP-tagged Ana3-C1 fragment (amino acids 1195-1977) (Drosophila melanogaster, UniProt A1Z8X3 1195-1977)
T1 construct: Vector pKM596; also called MBP::Ana3 C1; Ana3-C terminal 1; source: E. coli Rosetta BL21(DE3), purified; not shown: MBP, N-terminal, kept
T1 sequence (looked up): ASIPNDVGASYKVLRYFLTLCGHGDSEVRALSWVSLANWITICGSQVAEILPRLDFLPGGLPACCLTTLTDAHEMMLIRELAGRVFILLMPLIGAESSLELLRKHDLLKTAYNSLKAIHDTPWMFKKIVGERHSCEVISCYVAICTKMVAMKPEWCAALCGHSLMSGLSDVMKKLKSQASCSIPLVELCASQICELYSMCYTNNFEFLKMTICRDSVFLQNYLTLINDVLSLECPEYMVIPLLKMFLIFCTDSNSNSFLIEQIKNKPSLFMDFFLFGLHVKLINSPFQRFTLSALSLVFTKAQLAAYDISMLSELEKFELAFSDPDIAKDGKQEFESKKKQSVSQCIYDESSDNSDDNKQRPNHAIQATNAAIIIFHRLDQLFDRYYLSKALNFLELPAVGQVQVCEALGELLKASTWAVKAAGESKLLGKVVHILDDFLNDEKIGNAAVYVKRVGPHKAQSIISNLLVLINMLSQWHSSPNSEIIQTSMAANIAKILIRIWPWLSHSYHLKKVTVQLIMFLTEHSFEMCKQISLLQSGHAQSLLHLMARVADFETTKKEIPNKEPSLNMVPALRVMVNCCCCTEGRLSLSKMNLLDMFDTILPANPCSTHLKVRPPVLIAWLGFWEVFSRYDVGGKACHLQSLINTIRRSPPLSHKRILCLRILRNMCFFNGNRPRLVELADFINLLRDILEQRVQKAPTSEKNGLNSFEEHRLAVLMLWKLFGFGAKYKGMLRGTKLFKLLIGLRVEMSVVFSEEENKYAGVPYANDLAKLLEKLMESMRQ


Tests used:
[1] = target: T1, MBP-tagged Ana3-C1 fragment (amino …); assay: pull-down; GST-Rcd4 held on glutathione-sepharose 4B beads, MBP-tagged Ana3 fragment added, 1 h at 4°C; 20 mM Tris pH 7.5, 200 mM NaCl, 1 mM DTT, 10% glycerol; SDS-PAGE (Coomassie) and anti-MBP Western blot; details: both partners purified
[2] = target: T2, GST-tagged full-length Ana3 (Drosophila melanogaster, UniProt A1Z8X3 1-1977); assay: pull-down; full-length GST-Ana3 purified from S. cerevisiae incubated with MBP-Rcd4 purified from E. coli; GST::Ana3 purified, SDS-PAGE (Coomassie) and Western blot for MBP::Rcd4; details: both partners purified
T2 construct: Ana3, Drosophila melanogaster; also called GST::Ana3; GST-Ana3; source: S. cerevisiae (plasmid pMG1): coexpressed with 6xHis-Rcd4, in crude extract; also expressed alone and purified on glutathione beads

binding result [1]	binding result [2]	Binder
binds		GST-tagged Rcd4 (natural protein, Drosophila melanogaster, UniProt Q9VLM6 1-199, looked up, Rcd4, Drosophila melanogaster; 199 amino acid protein; also called GST::Rcd4; GST-Rcd4; source: E. coli Rosetta BL21(DE3), purified on glutathione-sepharose 4B beads; not shown: GST, N-terminal, kept) MPHKRRNRVHANQRNFTARRVSVAKLSSAPPNVLVESCNGSHADNSSPDSPKAKEGAMTNGKNPEIKLAVPKCNTTVRKQNEAHIISNIKLDMNLNKDSNFIAPQITKKMNFAPNRVVFGVLVPLNVNDSVLVPHNRKPDALKHTSKESESCKAISEPQLADYAEKVDPMIMAVKEPVLHLDWEPGPFDFFGAYRRTYN
	binds	MBP-tagged Rcd4 (natural protein, Drosophila melanogaster, UniProt Q9VLM6 1-199, looked up, Rcd4, Drosophila melanogaster; 199 amino acid protein; also called MBP::Rcd4; MBP-Rcd4; source: E. coli Rosetta BL21(DE3), purified; not shown: MBP, N-terminal, kept) MPHKRRNRVHANQRNFTARRVSVAKLSSAPPNVLVESCNGSHADNSSPDSPKAKEGAMTNGKNPEIKLAVPKCNTTVRKQNEAHIISNIKLDMNLNKDSNFIAPQITKKMNFAPNRVVFGVLVPLNVNDSVLVPHNRKPDALKHTSKESESCKAISEPQLADYAEKVDPMIMAVKEPVLHLDWEPGPFDFFGAYRRTYN
